One experiment concerns the target FAM19A5 protein (Homo sapiens, UniProt Q7Z5A7). Put plainly: Co-immunoprecipitation of FLAG-tagged LRRC4 family constructs with recombinant FAM19A5 in HEK293 cells. The experiment is classed as binding. Conditions: HEK293 cells expressing FLAG-tagged construct, recombinant FAM19A5 protein (1 μM) 30 minutes; anti-FLAG immunoprecipitation.
The target of experiment [1] is T1, FAM19A5 (isoform 2) - full-length LRRC4B protein complex (Homo sapiens, UniProt Q7Z5A7).
T1 construct: expressed in transfected cells; host or cells: HEK293
Put plainly: Immunofluorescence: dissociation of FAM19A5 from full-length LRRC4B in HEK293 cells. It is filed as cell-based. Conditions: HEK293 cells expressing FAM19A5 isoform 2 and LRRC4B, treated 30 minutes. How it is done: Since LRRC4B protein fragments containing the binding domain described in Example 2 (e.g., LRRC4B (453-576); i.e., construct #11 in Table 6) was able to bind to FAM19A5 protein with high affinity, it was next assessed whether such protein fragments could compete with naturally existing LRRC4B protein for binding to FAM19A5 protein, and thereby, dissociate the FAM19A5-LRRC4 protein family complex. Briefly, HEK293 cells expressing both FAM19A5 isoform 2 and LRRC4B protein were treated (i.e., cultured in vitro) for 30 minutes with either LRRC4B (453-576)-hFc or mutant LRRC4B (453-576)-hFc (includes alanine substitutions at positions 488 and 489 of SEQ ID NO: 2; SEQ ID NO: 16) protein fragments. Then, the cells were immunostained with anti-FAM19A5 (1-65) and anti-LRRC4B antibodies to determine the expression of FAM19A5 and full-length LRRC4B proteins, respectively. The hFc-fused LRRC4B protein fragments were determined using an anti-hIgG antibody. The nuclei were stained with Hoechst 33342.

The test system of experiment [2] is mouse primary hippocampal neurons. Put plainly: Synapse formation (SYP, PSD95) in primary hippocampal neurons. The experiment is classed as cell-based. The note with it: 6 or 60 nM. How it is done: Next, it is generally known that neurites that outgrow from other neurites are capable of differentiating into axons, forming presynapses. Other neurites remain minor neurites and differentiate into dendrites, forming postsynapses. Therefore, whether the LRRC4B (453-576) protein fragment can also affect pre- and post-synaptic formation was also assessed. Briefly, mouse primary hippocampal neurons were cultured in vitro with the LRRC4B (453-576) protein fragment (6 or 60 nM). Control cells were treated with either DMSO (“Veh”) or the mutant LRRC4B (453-576) protein fragment which is not capable of binding to FAM19A5 protein (comprises alanine substitutions at positions 488 and 489). Then, at days 3 and 6 post initial culture, the expression level of synaptophysin (SYP; a presynaptic marker) was assessed. At day 7 post initial culture, the expression level of postsynaptic density 95 (PSD95; a postsynaptic marker) was assessed.
Primary hippocampal neurons were prepared from postnatal pups (postnatal day 1) of C57BL/6 (Nara Biotech, Seoul, Korea) as previously described by Beaudoin et al., Nature protocols 7(9): 1741-1754 (2012), which is incorporated herein by reference in its entirety. Briefly, cortices were dissected in Hank's buffered salt solution (HBSS) (Invitrogen, Carlsbad, CA, USA) and digested with 2.5% trypsin for 15 min at 37° C. […]

FAM19A5 protein, sequence (Q7Z5A7 44-132): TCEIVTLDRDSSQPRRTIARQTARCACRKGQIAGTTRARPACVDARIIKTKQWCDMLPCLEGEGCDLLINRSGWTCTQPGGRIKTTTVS
T1 sequence (Q7Z5A7 1-125 isoform Q7Z5A7-2, one chain of several): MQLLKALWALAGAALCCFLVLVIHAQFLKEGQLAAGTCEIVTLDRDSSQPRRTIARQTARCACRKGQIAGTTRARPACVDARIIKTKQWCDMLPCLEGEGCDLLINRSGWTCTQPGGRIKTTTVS

B1: LRRC4B (453-576): LRRC4B fragment, amino acids 453-576 of SEQ ID NO: 2 (SEQ ID NO: 7); used hFc-fused (protein)
chain: VSAVDPVAAGGTGSGGGGPGGSGGVGGGSGGYTYFTTVTVETLETQPGEEALQPRGTEKEPPGPTTDGVWGGGRPGDAAGPASSSTTAPAPRSSRPTEKAFTVPITDVTENALKDLDDVMKTTK
modifications: human Fc fusion in use
notes: used hFc-fused
Consider B1, for which the “binding to FAM19A5 protein (co-immunoprecipitation)” value in the experiment with FAM19A5 protein is reported as “able to bind to the FAM19A5 protein”. In experiment [1], the “dissociation of FAM19A5 from full-length LRRC4B protein” value is “FAM19A5 was largely dissociated from the full-length LRRC4B protein”. In addition, the “number of puncta colabeled with SYP and PSD95” value in experiment [2] is “increased number of puncta”.
